Data as given in publication PMC11192315 (PLOS Pathogens, 2024).
Substitutions are numbered along the chain they refer to. Numbers in names are those of the source.

B1: JM-1A N59F mutant (antibody, V domains shown)
VH: QVQLQQSGPGLVKPSGTLSLTCAVSGASISSGDWWSWVRQSPGRGLEWIGGIFHSGTTFYSPSLKSRVTMSVDQPKNQFSLHLTSVTAADTAVYYCARMRGIFDYWGQGTLVTVSS
VL: DIQLTQSPSSLSVSVGDRVTITCRASQAISNSLAWYQQKPGKAPKLLLYAASTLESGVPSRFSGSGSGTDFTLTISSLQPEDFATYYCQHYYSTPFFGGGTKVEIK
B2: JM-1A-G32F (antibody, V domains shown)
VH: B1 VH with G32F, F59N
VL: B1 VL

What was measured:
[1] = biological target: RBD of SARS-CoV-2 Omicron BA.1 (SARS-CoV-2 Omicron BA.1, E484 to A484 | Q493R | Q498R | N501Y); experiment: cell-based or functional assay
[2] = biological target: RBD of SARS-CoV-2 Omicron BA.2 (SARS-CoV-2 Omicron BA.2, D405N | R408S | E484 to A484 | Q493R); experiment: cell-based or functional assay

Binder	IC50, neutralisation of pseudotyped lentivirus with Omicron BA.1 spike [1]	IC50, neutralisation of pseudotyped lentivirus with Omicron BA.2 spike [2]
B1	0.018 µg/mL	0.011 µg/mL
B2	0.019 µg/mL	0.03 µg/mL
